According to the supplement of paper PMC12764529:
± gives the half width of the 95% confidence interval.

Key:
[1] = folding stability dG unfold from chymotrypsin proteolysis; higher = more stable
Method in brief: (§1)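 Designed mini-proteins with no cysteine and under 80 residues were kept only if AlphaFold2 dimer inter-PAE was above 15. In a PA-tagged cDNA display construct, they were digested with trypsin and chymotrypsin and then sequenced. K50 was inferred by Bayesian fitting of counts, and unfolding free energy was derived per protease or combined against a sequence-predicted unfolded-state K50 and a shared folded-state K50.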

[2] = folding stability dG unfold (combined trypsin and chymotrypsin); higher = more stable
Method in brief: as §1

[3] = folding stability dG unfold from trypsin proteolysis; higher = more stable
Method in brief: as §1

Sequence | folding stability dG unfold [1] [kcal/mol] | folding stability dG unfold [2] [kcal/mol] | folding stability dG unfold [3] [kcal/mol]
SAGGSAGGSAKEYIVRIKVRLKDGEEVEIEITVSEEELEELKKALESLPNIEEAEIEVFPLPSAGGSAGGSA [r18_157_TrROS_Hall] | 3.53 ± 0.043 | 3.63 ± 0.066 | 3.82 ± 0.11
SAGGSAGGSAGGPRMTVVDLDPEKGDHLYLVEIPDTNEVVLVSSSELLRLAEAGPVELKGSAGGSAGGSAGG [r7_452_TrMRF] | 0.115 ± 0.062 | 0.129 ± 0.14 | -0.107 ± 0.27
SAGGSAGGSSPPLEILDPVSATLPDGGTLTVAKAAGSYYLVTTTTYDPATGTATSTTTVVPLESAGGSAGGS [r20_15_JUSTAS] | 0.827 ± 0.076 | 0.528 ± 0.065 | 0.0164 ± 0.088
SAGGSAGGSGMTTTLTTEPRPDSTVVTTTTTTPTSVTTTTTVYDPDGNVVSTTTTTTPLPATSSAGGSAGGS [r12_710_JUSTAS] | 0.257 ± 0.018 | 1.11 ± 0.028 | 1.73 ± 0.059
SAGMETVTVEVDGATITFVKNEDGTVTAIVTYPNGEVEIYNADGELIRRERLPNGLVVFEFTKEELEKLSAG [r5_457_TrROS_Hall] | 2.09 ± 0.068 | 1.93 ± 0.14 | 1.19 ± 0.057
SARILRVEFEPFPLTERARLRLEVEDEDNDFPYEVDIELEVLPDPSEVRLRLVVRRPDGSRRELELRLFSAG [r14_10_TrMRF] | 4.97 ± 0.091 | 4.23 ± 0.091 | 3.56 ± 0.086
SAGMTQTLEVSGPSVKVTLTVAPDGSVTITTTDPNGNTTTTSLYVPPGVPVTIPLPFGGTTITATVTPASAG [r5_237_JUSTAS] | 2.11 ± 0.071 | 2.36 ± 0.09 | 2.38 ± 0.087
SAGGSASVEVSVEEKDGTLTVTVTVEVDGKLVTVTVTLTLPPPPPLSAEELEKAREAEKEGKTVEVSAGGSA [r15_631_TrROS_Hall] | 2.77 ± 0.16 | 2.49 ± 0.11 | 1.24 ± 0.12
SMVTSETRETVTVTLPDGTVVTVTVTTHRPADGVPTATVTVTTTSADGTPTTSTHTFPAAEAPALIAAALSA [r9_189_JUSTAS] | 1.96 ± 0.044 | 2.35 ± 0.086 | 2.84 ± 0.13
SIIVEPLPDNTFIAYFPETDSVIEIRVDPSTGKAHAIAELPGEPVEATFDPRKGVLVIELPNGRIVLPLLSA [r9_541_TrMRF] | 1.7 ± 0.065 | 2.01 ± 0.088 | 2.28 ± 0.051
SAGGSAGGSAGGKKVYKVPSLEEALELAKKNKGKTVEIEVDGKKYKFNKNGKIVEIEPVKSAGGSAGGSAGG [r7_532_TrROS_Hall] | 2.38 ± 0.075 | 2.14 ± 0.12 | 1.36 ± 0.084
SPPGWKVIPITLKFRAPIKSVEEAKSQVREIAREIANRHGFPIQVNVTVEYDPEDGWVKVEVPISIWVPKSA [r9_741_TrROS] | 3.234 ± 0.022 | 2.97 ± 0.09 | 2.75 ± 0.081
SAGGSAGGSMKIPSDYTLTPIETKDNGASTVTLEKVTYPGPSLLATFLTPPDGTVTLLEVKPVSAGGSAGGS [r20_103_JUSTAS] | 1.24 ± 0.072 | 0.997 ± 0.065 | 0.525 ± 0.046
SAGGMERKTLTVNVPASVPASELLSLLEGYGDVLLVLGNGEVLHIKRDDAPGLEGLPLSDDDVLELYYSAGG [r13_399_TrMRF] | 1.23 ± 0.059 | 0.802 ± 0.075 | -0.696 ± 0.14
SAGGSAMLTLLYRVPPGDPLAHAREIAEALEERFGAKVRILDVKVERDPVTREVYIPVVVELELPESAGGSA [r15_70_TrMRF] | 1.3 ± 0.16 | 1.14 ± 0.17 | 0.856 ± 0.074
SAEVYEFGNAVVVVTTSPDGTVRVYVFNPETGEVTEIEIHPDTPGEYKVRPLGNGEVKEATVPVSDILPVSA [r9_1071_TrMRF] | 1.42 ± 0.2 | 1.19 ± 0.23 | 0.851 ± 0.051
SAGGSAGGSLVLPDDYKVIVREFDLSDVGRAVREVMEEFDVKDALFLAVPLPGKVLLFVVVKESAGGSAGGS [r12_929_TrMRF] | 2.9 ± 0.076 | 2.99 ± 0.21 | 2.95 ± 0.098
